Test results published in the supplement of paper PMC11246515.
± gives the standard deviation of the averaged measurements.

Assay: total protein half-life in vivo (active degradation + dilution); higher = more stable protein
[1] = E. coli NCM3722 delta-clpP delta-lon delta-hslV, growth: N-lim chemostat, doubling time 6 h
[2] = E. coli NCM3722 delta-clpP, growth: N-lim chemostat, doubling time 6 h
[3] = E. coli NCM3722 delta-hslV, growth: N-lim chemostat, doubling time 6 h
[4] = E. coli NCM3722 delta-lon, growth: N-lim chemostat, doubling time 6 h
[5] = E. coli NCM3722 delta-smpB, growth: N-lim chemostat, doubling time 6 h
[6] = wild type E. coli NCM3722, growth: C-lim chemostat, doubling time 3 h
[7] = wild type E. coli NCM3722, growth: C-lim chemostat, doubling time 12 h
[8] = wild type E. coli NCM3722, growth: N-lim chemostat, doubling time 6 h
[9] = wild type E. coli NCM3722, growth: N-lim chemostat, doubling time 12 h
[10] = wild type E. coli NCM3722, growth: P-lim chemostat, doubling time 6 h
[11] = wild type E. coli NCM3722, growth: C-lim chemostat, doubling time 6 h
[12] = wild type E. coli NCM3722, growth: P-lim chemostat, doubling time 12 h

Sequence | total protein half-life in vivo [1] [h] | total protein half-life in vivo [2] [h] | total protein half-life in vivo [3] [h] | total protein half-life in vivo [4] [h] | total protein half-life in vivo [5] [h] | total protein half-life in vivo [6] [h] | total protein half-life in vivo [7] [h] | total protein half-life in vivo [8] [h] | total protein half-life in vivo [9] [h] | total protein half-life in vivo [10] [h] | total protein half-life in vivo [11] [h] | total protein half-life in vivo [12] [h]
MSTIVIFLAALLACSLLAGWLIKVRSRRRQLPWTNAFADAQTRKLTPEERSAVENYLESLTQVLQVPGPTGASAAPISLALNAESNNVMMLTHAITRYGISTDDPNKWRYYLDSVEVHLPPFWEQYINDENTVELIHTDSLPLVISLNGHTLQEYMQETRSYALQPVPSTQASIRGEESEQIELLNIRKETHEEYALSRPRGLREALLIVASFLMFFFCLITPDVFVPWLAGGALLLLGAGLWGLFAPPAKSSLREIHCLRGTPRRWGLFGENDQEQINNISLGIIDLVYPAHWQPYIAQDLGQQTDIDIYLDRHVVRQGRYLSLHDEVKNFPLQHWLRSTIIAAGSLLVLFMLLFWIPLDMPLKFTLSWMKGAQTIEATSVKQLADAGVRVGDTLRISGTGMCNIRTSGTWSAKTNSPFLPFDCSQIIWNDARSLPLPESELVNKATALTEAVNRQLHPKPEDESRVSASLRSAIQKSGMVLLDDFGDIVLKTADLCSAKDDCVRLKNALVNLGNSKDWDALVKRANAGKLDGVNVLLRPVSAESLDNLVATSTAPFITHETARAAQSLNSPAPGGFLIVSDEGSDFVDQPWPSASLYDYPPQEQWNAFQKLAQMLMHTPFNAEGIVTKIFTDANGTQHIGLHPIPDRSGLWRYLSTTLLLLTMLGSAIYNGVQAWRRYQRHRTRMMEIQAYYESCLNPQLITPSESLIE | 7.278 ± 0.055 | 6.37 ± 0.32 | 6.48 ± 0.55 | 6.72 ± 0.7 | 5.73 ± 0.16 | 3.25 ± 0.17 | 13.9 ± 1.9 | 6.06 ± 0.22 | 11.6 ± 1.6 | 6.84 ± 0.8 |  | 
MRTSQYLLSTLKETPADAEVISHQLMLRAGMIRKLASGLYTWLPTGVRVLKKVENIVREEMNNAGAIEVSMPVVQPADLWQESGRWEQYGPELLRFVDRGERPFVLGPTHEEVITDLIRNELSSYKQLPLNFYQIQTKFRDEVRPRFGVMRSREFLMKDAYSFHTSQESLQETYDAMYAAYSKIFSRMGLDFRAVQADTGSIGGSASHEFQVLAQSGEDDVVFSDTSDYAANIELAEAIAPKEPRAAATQEMTLVDTPNAKTIAELVEQFNLPIEKTVKTLLVKAVEGSSFPQVALLVRGDHELNEVKAEKLPQVASPLTFATEEEIRAVVKAGPGSLGPVNMPIPVVIDRTVAAMSDFAAGANIDGKHYFGINWDRDVATPEVADIRNVVAGDPSPDGQGRLLIKRGIEVGHIFQLGTKYSEALKASVQGEDGRNQILTMGCYGIGVTRVVAAAIEQNYDERGIVWPDAIAPFQVAILPMNMHKSFRVQELAEKLYSELRAQGIEVLLDDRKERPGVMFADMELIGIPHTIVLGDRNLDNDDIEYKYRRNGEKQLIKTGDIVEYLVKQIKG | 5.92 ± 0.2 | 5.61 ± 0.85 | 5.37 ± 0.21 | 6.14 ± 0.13 | 5.24 ± 0.2 | 3.1 ± 0.061 | 10.9 ± 0.57 | 5.4 ± 0.19 | 10.6 ± 0.72 | 6.14 ± 0.17 | 6.12 ± 0.33 | 12.2 ± 1.2
MGKSIVVVSAVNFTTGGPFTILKKFLAATNNKENVSFIALVHSAKELKESYPWVKFIEFPEVKGSWLKRLHFEYVVCKKLSKELNATHWICLHDITANVVTKKRYVYCHNPAPFYKGILFREILMEPSFFLFKMLYGLIYKINIKKNTAVFVQQFWMKEKFIKKYSINNIIVSRPEIKLSDKSQLTDDDSQFKNNPSELTIFYPAVPRVFKNYELIISAARKLKEQSNIKFLLTISGTENAYAKYIISLAEGLDNVHFLGYLDKEKIDHCYNISDIVCFPSRLETWGLPLSEAKERGKWVLASDFPFTRETLGSYEKKAFFDSNNDDMLVKLIIDFKKGNLKKDISDANFIYRNENVLVGFDELVNFITEEH | 5.98 | > 8 | > 8 | 7.3 ± 0.89 | 5.6 ± 0.084 |  | 10.5 | 5.39 ± 0.26 | 12.4 ± 0.87 | 6.42 | 5.53 | 14.9 ± 1.6
MFKFLVLTLGIISCQAYAEDTVIVNDHDISAIKDCWQKNSDDDTDVNVIKSCLRQEYNLVDAQLNKAYGEAYRYIEQVPRTGVKKPDTEQLNLLKKSQRAWLDFRDKECELILSNEDVQDLSDPYSESEWLSCMIIQTNTRTRQLQLYRNSEDFYPSPLTRG |  |  | 6.44 |  |  |  |  |  |  |  |  | 
MTTLTARPEAITFDPQQSALIVVDMQNAYATPGGYLDLAGFDVSTTRPVIANIQTAVTAARAAGMLIIWFQNGWDEQYVEAGGPGSPNFHKSNALKTMRKQPQLQGKLLAKGSWDYQLVDELVPQPGDIVLPKPRYSGFFNTPLDSILRSRGIRHLVFTGIATNVCVESTLRDGFFLEYFGVVLEDATHQAGPKFAQKAALFNIETFFGWVSDVETFCDALSPTSFAHIA | 4.33 ± 0.13 | 1.41 ± 0.23 | 0.334 | 0.503 ± 0.025 | 0.441 |  |  |  | 0.812 |  |  | 
MVSETKTTEAPGLRRELKARHLTMIAIGGSIGTGLFVASGATISQAGPGGALLSYMLIGLMVYFLMTSLGELAAYMPVSGSFATYGQNYVEEGFGFALGWNYWYNWAVTIAVDLVAAQLVMSWWFPDTPGWIWSALFLGVIFLLNYISVRGFGEAEYWFSLIKVTTVIVFIIVGVLMIIGIFKGAQPAGWSNWTIGEAPFAGGFAAMIGVAMIVGFSFQGTELIGIAAGESEDPAKNIPRAVRQVFWRILLFYVFAILIISLIIPYTDPSLLRNDVKDISVSPFTLVFQHAGLLSAAAVMNAVILTAVLSAGNSGMYASTRMLYTLACDGKAPRIFAKLSRGGVPRNALYATTVIAGLCFLTSMFGNQTVYLWLLNTSGMTGFIAWLGIAISHYRFRRGYVLQGHDINDLPYRSGFFPLGPIFAFILCLIITLGQNYEAFLKDTIDWGGVAATYIGIPLFLIIWFGYKLIKGTHFVRYSEMKFPQNDKK |  | > 8 |  | 5.36 | 6.44 |  | > 16 | 6.92 |  | 6.22 | > 8 | 8.87
MQKLINSVQNYAWGSKTALTELYGMENPSSQPMAELWMGAHPKSSSRVQNAAGDIVSLRDVIESDKSTLLGEAVAKRFGELPFLFKVLCAAQPLSIQVHPNKHNSEIGFAKENAAGIPMDAAERNYKDPNHKPELVFALTPFLAMNAFREFSEIVSLLQPVAGAHPAIAHFLQQPDAERLSELFASLLNMQGEEKSRALAILKSALDSQQGEPWQTIRLISEFYPEDSGLFSPLLLNVVKLNPGEAMFLFAETPHAYLQGVALEVMANSDNVLRAGLTPKYIDIPELVANVKFEAKPANQLLTQPVKQGAELDFPIPVDDFAFSLHDLSDKETTISQQSAAILFCVEGDATLWKGSQQLQLKPGESAFIAANESPVTVKGHGRLARVYNKL | 4.5 ± 0.45 | 4.28 ± 0.05 | 5.01 ± 0.19 | 4.64 ± 0.25 | 4.506 ± 0.036 | 3.03 ± 0.032 | 10.7 ± 0.47 | 4.46 ± 0.15 | 7.24 ± 0.34 | 5.71 ± 0.53 | 5.48 ± 0.18 | 10.9 ± 0.41
MIPDVSQALAWLEKHPQALKGIQRGLERETLRVNADGTLATTGHPEALGSALTHKWITTDFAEALLEFITPVDGDIEHMLTFMRDLHRYTARNMGDERMWPLSMPCYIAEGQDIELAQYGTSNTGRFKTLYREGLKNRYGALMQTISGVHYNFSLPMAFWQAKCGDISGADAKEKISAGYFRVIRNYYRFGWVIPYLFGASPAICSSFLQGKPTSLPFEKTECGMYYLPYATSLRLSDLGYTNKSQSNLGITFNDLYEYVAGLKQAIKTPSEEYAKIGIEKDGKRLQINSNVLQIENELYAPIRPKRVTRSGESPSDALLRGGIEYIEVRSLDINPFSPIGVDEQQVRFLDLFMVWCALADAPEMSSSELACTRVNWNRVILEGRKPGLTLGIGCETAQFPLPQVGKDLFRDLKRVAQTLDSINGGEAYQKVCDELVACFDNPDLTFSARILRSMIDTGIGGTGKAFAEAYRNLLREEPLEILREEDFVAEREASERRQQEMEAADTEPFAVWLEKHA [P0A6W9] | 4.67 ± 0.094 | 4.57 ± 0.48 | 4.96 ± 0.18 | 5.15 ± 0.6 | 4.55 ± 0.18 | 3.36 ± 0.2 | 9.533 ± 0.031 | 4.35 ± 0.33 | 7.2 ± 0.27 | 6.1209 ± 0.0053 | 6.04 ± 0.38 | 11.4 ± 0.35
MTLSSQHYLVITALGADRPGIVNTITRHVSSCGCNIEDSRLAMLGEEFTFIMLLSGSWNAITLIESTLPLKGAELDLLIVMKRTTARPRPPMPASVWVQVDVADSPHLIERFTALFDAHHMNIAELVSRTQPAENERAAQLHIQITAHSPASADAANIEQAFKALCTELNAQGSINVVNYSQHDEQDGVK [P0A9I3] | 4.9 ± 0.79 | 4.39 ± 0.19 | 4.53 ± 0.06 | 4.62 ± 0.24 | 4.056 ± 0.037 | 2.976 ± 0.012 | 9.43 ± 3.2 | 4.42 ± 0.34 | 7.51 ± 0.33 | 5.71 ± 0.46 | 5.48 ± 0.32 | 12.1 ± 1.4
